Measurements: article PMC11127761, “Development of a Neuropeptide Y-Sensitive Implantable Microelectrode for Continuous Measurements”

Molecular target: Neuropeptide Y (NPY) (UniProt P01303 29-64)
Test: electrochemical aptasensor (SWV, steady state); 1-1000 pg/mL; best NPY response of the three aptamers; aCSF pH 7.4 (composition by citation); SWV -0.4 to 0.0 V, 30 Hz; IPA 500 Hz in flow cell; assay temperature not stated
Settings: protein: commercial; label: 3' methylene blue; immobilized on Pt via 5' thiol

B1: Aptamer 4.31 (ssDNA)
DNA: AGCAGCACAGAGGTCAGATGCAAACCACAGCCTGAGTGGTTAGCGTATGTCATTTACGGACCTATGCGTGCTACCGTGAA
modifications: 5' thiol C6 (disulfide reduced), 3' amino linker
  binding result: binds
